Assay results published in doi:10.1101/795211 (bioRxiv, 2019).

Tests used:
[1] = target: the molecule itself; experiment: SEC-MALS
[2] = target: T1, His-tagged AtYefM co-expressed with AtYoeB from the pET-Duet vector (Agrobacterium tumefaciens strC58, UniProt Q7CY23 1-84); experiment: SEC-MALS
T1 sequence (looked up): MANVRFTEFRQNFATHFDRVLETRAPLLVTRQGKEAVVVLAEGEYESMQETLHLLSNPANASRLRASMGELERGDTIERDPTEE

B1: YoeB toxin from Agrobacterium tumefaciens (AtYoeB), expressed alone, after removal of the GST-His affinity tag (natural protein)
chain: MKLVWTLSSWDDYEFWQRTDARMVEKINDLIRNAKRTPFAGLGKPEPLKGDMAGYWSRRITAEHRFVYRVSGSGSEQRLEVIQCRFHYQ
stoichiometry N [1]: 2

B2: AtYoeB co-expressed with His-AtYefM from the pET-Duet vector (natural protein)
chain: MKLVWTLSSWDDYEFWQRTDARMVEKINDLIRNAKRTPFAGLGKPEPLKGDMAGYWSRRITAEHRFVYRVSGSGSEQRLEVIQCRFHYQ
stoichiometry N [2]: 1

B3: His-AtYefM, YefM antitoxin from Agrobacterium tumefaciens expressed alone (pET15b), His affinity tag kept (natural protein, Agrobacterium tumefaciens strC58, UniProt Q7CY23 1-84, looked up)
chain: MANVRFTEFRQNFATHFDRVLETRAPLLVTRQGKEAVVVLAEGEYESMQETLHLLSNPANASRLRASMGELERGDTIERDPTEE
stoichiometry N [1]: 2
